Results published in patent US20240228596A1.

Molecular target: SARS-COV-2 Wuhan WT Spike_del18 on VSV-delG pseudotyped particles (SARS-COV-2) (UniProt P0DTC2)
Experiment: cell-based or functional assay

VHH72-5mut-Fc (VHH72_h1_E1D_R27L_E31D_Y32I_S56G_L97A-10xGS-hIgG1_EPKSCdel_LALA_K447del) (Fc fusion)
potency of neutralization against D72-53: 2.5 times
